The source of these data is patent publication US20140120095A1 (Boehringer Ingelheim, published 2014).

Sequences and labels used below:
B1: VEGFBII024 (VHH)
chain: EVQLVESGGGLVQTGDSLRLSCEVSGRTFSSYSMGWFRQAQGKEREFVVAISKGGYKYDSVSLEGRFTISKDNAKNTVYLQINSLKPEDTAVYYCASSRAYGSSRLRLADTYEYWGQGTQVTVSSGGGGSGGGGSGGGGSGGGGSGGGGSGGGGSGGGGSGGGGSEVQLVESGGGLVQAGGSLRLSCTASGSAFKSYRMGWFRRTPGKEDEFVASISWTYGSTFYADSVKGRFTMSRDKAKNAGYLQMNSLKPEDTALYYCAAGAQSDRYNIRSYDYWGQGTQVTVSS
notes: bivalent (heterodimeric) VHH; also called VEGFBII23B04-40GS-86H09
B2: VEGFBII021 (VHH)
chain: EVQLVESGGGLVQTGDSLRLSCEVSGRTFSSYSMGWFRQAQGKEREFVVAISKGGYKYDSVSLEGRFTISKDNAKNTVYLQINSLKPEDTAVYYCASSRAYGSSRLRLADTYEYWGQGTQVTVSSGGGGSGGGGSGGGGSGGGGSGGGGSGGGGSGGGGSGGGGSEVQLVESGGGLVQPGGSLRLSCVASGIRFMSMAWYRQAPGKHRELVARISSGGTTAYVDSVKGRFTISRDNSKNTVYLQMNSLKAEDTAVYYCNTFSSRPNPWGAGTQVTVSS
notes: bivalent (heterodimeric) VHH; also called VEGFBII23B04-40GS-5B05
B3: VEGFBII023 (VHH)
chain: EVQLVESGGGLVQTGDSLRLSCEVSGRTFSSYSMGWFRQAQGKEREFVVAISKGGYKYDSVSLEGRFTISKDNAKNTVYLQINSLKPEDTAVYYCASSRAYGSSRLRLADTYEYWGQGTQVTVSSGGGGSGGGGSGGGGSGGGGSGGGGSGGGGSGGGGSGGGGSEVQLVESGGGLVQAGGSLRLSCAASGRTFSNYAMGWFRQAPGKERVLVADISSSGINTYVADAVKGRFTISRDNAKNTVYLQMNSLKPEDTAVYYCAASAWWYSQMARDNYRYWGQGTQVTVSS
notes: bivalent (heterodimeric) VHH; also called VEGFBII23B04-40GS-10E07
B4: VEGFBII022 (VHH)
chain: EVQLVESGGGLVQTGDSLRLSCEVSGRTFSSYSMGWFRQAQGKEREFVVAISKGGYKYDSVSLEGRFTISKDNAKNTVYLQINSLKPEDTAVYYCASSRAYGSSRLRLADTYEYWGQGTQVTVSSGGGGSGGGSEVQLVESGGGLVQPGGSLRLSCVASGIRFMSMAWYRQAPGKHRELVARISSGGTTAYVDSVKGRFTISRDNSKNTVYLQMNSLKAEDTAVYYCNTFSSRPNPWGAGTQVTVSS
notes: bivalent (heterodimeric) VHH; also called VEGFBII23B04-9GS-5B05
B5: VEGFBII025 (VHH)
chain: EVQLVESGGGLVQAGGSLRLSCAASGRTFSNYAMGWFRQAPGKERVLVADISSSGINTYVADAVKGRFTISRDNAKNTVYLQMNSLKPEDTAVYYCAASAWWYSQMARDNYRYWGQGTQVTVSSGGGGSGGGGSGGGGSGGGGSGGGGSGGGGSGGGGSGGGGSEVQLVESGGGLVQTGDSLRLSCEVSGRTFSSYSMGWFRQAQGKEREFVVAISKGGYKYDSVSLEGRFTISKDNAKNTVYLQINSLKPEDTAVYYCASSRAYGSSRLRLADTYEYWGQGTQVTVSS
notes: bivalent (heterodimeric) VHH; also called VEGFBII10E07-40GS-23B04

In one test the target is T1, PIGF (UniProt P49763-2 21-149, limits assumed).
T1 construct: also called placenta growth factor
T1 sequence (looked up): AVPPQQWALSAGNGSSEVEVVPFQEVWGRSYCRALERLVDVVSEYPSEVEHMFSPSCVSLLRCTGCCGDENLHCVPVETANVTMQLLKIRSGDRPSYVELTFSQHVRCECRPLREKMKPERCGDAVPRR
In words: solid phase binding ELISA on coated PIGF (Example 12.8). On the procedure:
(§1) Binding to VEGFB, VEGFC, VEGFD and PIGF is assessed via a solid phase binding ELISA. […] Wells are blocked with a casein solution (1% in PBS). […] As positive controls serial dilutions of the appropriate receptors are taken along and detected with horseradish peroxidase (HRP)-conjugated goat anti-human IgG, Fc specific antibody (Jackson Immuno Research Laboratories Inc., West Grove, Pa., USA) and a subsequent enzymatic reaction in the presence of the substrate TMB (3,3′,5,5′-tetramentylbenzidine) (Pierce, Rockford, Ill., USA).
For the molecule B1, the binding result is “no binding (tested: about 5e-7 M)”.
Same read-out and setting: the entry for B2 is “no binding (tested: about 5e-7 M)”; for B3 it is “no binding (tested: about 5e-7 M)”.
For the molecule B4, the binding result is reported as “no binding (tested: about 5e-7 M)”.
On to B5, for which the binding result is “no binding (tested: about 5e-7 M)”.

A further test deals with T2, VEGFD (UniProt O43915 93-201, limits assumed).
T2 sequence (looked up): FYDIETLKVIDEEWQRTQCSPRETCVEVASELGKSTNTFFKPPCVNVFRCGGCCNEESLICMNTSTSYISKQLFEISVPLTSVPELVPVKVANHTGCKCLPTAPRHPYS
In words: solid phase binding ELISA on coated VEGF D (Example 12.8). On the procedure: as §1
In general terms: An ELISA detects its analyte on a solid surface through an enzyme-linked reagent.
As for B1, the binding result is “no binding (tested: about 5e-7 M)”.
As for B2, the binding result is given as “no binding (tested: about 5e-7 M)”.
Same read-out and setting: with B3 the entry was “no binding (tested: about 5e-7 M)”.
Regarding B4, the binding result is “no binding (tested: about 5e-7 M)”.
As to B5, the binding result is recorded as “no binding (tested: about 5e-7 M)”.

The target of the next test is T3, VEGFB (UniProt P49765-2 22-188, limits assumed).
T3 sequence (looked up): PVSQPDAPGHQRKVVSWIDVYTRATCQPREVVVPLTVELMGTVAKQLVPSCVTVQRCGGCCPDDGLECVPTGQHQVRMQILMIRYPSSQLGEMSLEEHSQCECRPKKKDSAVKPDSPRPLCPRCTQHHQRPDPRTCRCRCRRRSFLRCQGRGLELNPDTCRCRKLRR
In words: binding ELISA on coated VEGFB (Example 12.8), OD 450 nm. As for the experimental part:
as §1
On to B1, for which the binding result is “no binding (tested: 5e-7 M)”.
Same read-out and setting: the entry for B2 is “no binding (tested: 5e-7 M)”.
B3: the binding result is “no binding (tested: 5e-7 M)”.
As for B4, the binding result is reported as “no binding (tested: 5e-7 M)”.
As to B5, the binding result is listed as “no binding (tested: 5e-7 M)”.

A further test addresses T4, VEGFC (UniProt P49767 103-227, limits assumed).
T4 sequence (looked up): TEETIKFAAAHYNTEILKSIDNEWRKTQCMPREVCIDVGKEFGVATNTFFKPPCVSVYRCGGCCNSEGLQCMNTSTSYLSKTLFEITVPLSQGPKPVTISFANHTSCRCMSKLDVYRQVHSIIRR
The test can be described thus: binding ELISA on coated VEGFC (Example 12.8), OD 450 nm. On the procedure:
as §1
For the molecule B1, the binding result is reported as “no binding (tested: 5e-7 M)”.
On the same count and under the same terms, the entry for B2 is “no binding (tested: 5e-7 M)”.
The same measure, in the same setting: the entry for B3 is “no binding (tested: 5e-7 M)”; for B4 it is “no binding (tested: 5e-7 M)”; for B5 it is “no binding (tested: 5e-7 M)”.
